Paper PMC4388636

How the values were obtained:
[1] = target: toll like receptor-4 (human (endogenous in monocytes)) (UniProt O00206)
[2] = target: toll like receptor-4 (human (endogenous in monocytes)) (UniProt O00206); remark: listed apart in the source
[3] = target: toll like receptor-4 (human (endogenous in monocytes)) (UniProt O00206); remark: listed apart in the source
[4] = target: toll like receptor-4 (human (endogenous in monocytes)) (UniProt O00206); remark: listed apart in the source

UniProt O00206, sequence (O00206 24-839): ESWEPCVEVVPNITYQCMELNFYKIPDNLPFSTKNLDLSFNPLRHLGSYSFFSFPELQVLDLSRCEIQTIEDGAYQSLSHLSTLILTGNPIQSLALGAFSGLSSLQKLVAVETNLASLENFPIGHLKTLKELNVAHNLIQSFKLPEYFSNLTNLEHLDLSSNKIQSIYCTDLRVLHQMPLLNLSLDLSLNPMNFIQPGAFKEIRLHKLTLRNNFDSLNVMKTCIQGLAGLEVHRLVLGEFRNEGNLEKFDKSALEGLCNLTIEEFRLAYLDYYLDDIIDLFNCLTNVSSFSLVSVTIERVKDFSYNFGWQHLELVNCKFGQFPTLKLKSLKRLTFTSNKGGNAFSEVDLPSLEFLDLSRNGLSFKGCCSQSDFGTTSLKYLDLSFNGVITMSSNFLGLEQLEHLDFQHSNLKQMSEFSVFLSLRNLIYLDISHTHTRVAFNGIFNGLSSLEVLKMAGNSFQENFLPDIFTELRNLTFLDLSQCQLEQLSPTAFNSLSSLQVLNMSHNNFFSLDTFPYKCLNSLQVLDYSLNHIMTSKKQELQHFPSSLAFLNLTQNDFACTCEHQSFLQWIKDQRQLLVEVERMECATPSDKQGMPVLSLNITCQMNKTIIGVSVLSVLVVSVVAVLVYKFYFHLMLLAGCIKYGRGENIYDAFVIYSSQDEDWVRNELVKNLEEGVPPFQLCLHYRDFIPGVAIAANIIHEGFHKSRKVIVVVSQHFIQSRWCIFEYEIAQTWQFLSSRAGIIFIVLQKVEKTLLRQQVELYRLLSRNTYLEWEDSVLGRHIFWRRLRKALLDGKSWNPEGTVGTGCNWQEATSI

B1: recombinant Wolbachia heat shock protein 60 (natural protein)
chain: MTNVVVSGEQLQEAFREVAVMVDSTVAITAGPRGKTVGINKPYGAPEITKDGYKVMKGIKPEKPLHAAITSIFAQSCFQCNDKVGDGTTTCSILTSNMIMEALKSIAAGNDRVSIKNGMQKAKDAVLEGITSMSRTIPLEKMDEVAQVAIISANGDKDIGNSIADAVKKVGKEGVITVEESKGSKELEVELTTGMQFDRGYLSPYFITSNEKMIVEFDDPYLLITEKKLSIIQPLLPILEAVVKSGKPLLIIAEDIEGEALSTLVINKLRGGLKVTAVKAPGFGDRRKEMLEDIAALTGAKYVIKDELGIKMEDLTLEDLGTAKNVKVTKDNTTIVSGSSDSDRVKARVEQIKSQIETSTSDYDKEKLRERLAKLSGGVAVLKVGGVTEVEVKERRDRVEDALHATRAAIEEGIVPGGGVALLYASSALDKLKGGSDEEQIGINIIKKVLSAPIKRLVKNAGLESAVIIDHLTKQNDKELIYNVEAMNYANAFTAGVIDPAKVVRIAFETAISVASVLITTESMIVDVPNKEENASSSMGAGGMGGMNGF
[1]
  ROS levels in monocytes after rWmhsp60, fluorimetry with DCF2-DA, fold change: 3 fold
  loss of mitochondrial membrane potential in monocytes after rWmhsp60, fluorimetry with TMRE, fold change: 3 fold
[2]
  dead monocytes (annexin-V-FITC-/PI+) after 24 h with rWmhsp60: 23%
  dead monocytes after rWmhsp60, with pretreatment by anti-TLR-4 monoclonal antibodies for 2 h: 6.5%
  late apoptotic monocytes (annexin-V-FITC+/PI+) after 24 h with rWmhsp60: 18%
  late apoptotic monocytes after rWmhsp60, with pretreatment by anti-TLR-4 monoclonal antibodies for 2 h: 6%
[3]
  dead monocytes after rWmhsp60, with rapamycin treatment before the stimulation: 7.5%
  late apoptotic monocytes after rWmhsp60, with rapamycin treatment before the stimulation: 6.5%
[4]
  SA-β-Gal–positive (senescent) monocytes after rWmhsp60: 78%
  SA-β-Gal–positive (senescent) monocytes after rWmhsp60, with rapamycin pretreatment: 10%
